The values that follow come from patent US20240158831A1 (PROMEGA, published 2024).

B1: OgLuc variant L27V (9B8 opt+K33N+L27V+T39T+K43R+Y68D) (enzyme)
chain: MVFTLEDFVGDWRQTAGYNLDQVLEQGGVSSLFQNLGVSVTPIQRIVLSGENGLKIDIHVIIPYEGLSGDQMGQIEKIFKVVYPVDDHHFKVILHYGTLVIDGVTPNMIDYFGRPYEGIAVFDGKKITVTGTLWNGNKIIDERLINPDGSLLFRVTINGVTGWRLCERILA
notes: Expressed as a HaloTag fusion (pFN18A) in E. coli KRX and purified with the HaloTag Protein Purification System; It eluted as a 24 kDa protein
B2: OgLuc variant C1+A4E, HQHQHQ N-terminally tagged (enzyme)
chain: HQHQHQMVFTLEDFVGDWRQTAGYNQDQVLEQGGLSSLFQKLGVSVTPIQKIVLSGENGLKFDIHVIIPYEGLSGFQMGLIEMIFKVVYPVDDHHFKIILHYGTLVIDGVTPNMIDYFGRPYEGIAVFDGKKITVTGTLWNGNKIIDERLINPDGSLLFRVTINGVTGWRLCERILA
notes: Purified from E. coli KRX with the HISLINK system
B3: OgLuc variant 9B8, HQHQHQ N-terminally tagged (enzyme)
chain: HQHQHQMVFTLEDFVGDWRQTAGYNLDQVLEQGGLSSLFQKLGVSVTPIQKIVLSGENGLKIDIHVIIPYEGLSGYQMGQIEKIFKVVYPVDDHHFKVILHYGTLVIDGVTPNMIDYFGRPYEGIAVFDGKKITVTGTLWNGNKIIDERLINPDGSLLFRVTINGVTGWRLCERILA
notes: as for B2

This data set concerns the molecule itself. Nature of the data set: gel filtration chromatography (Superdex 200 5/150 GL), self-association. The text has this: Gel filtration analysis was used to verify the expected molecular weight of the purified OgLuc proteins based on the theoretical values and consequently to determine their oligomeric state. A comparison between the relative hydrodynamic volume of the OgLuc variants C1+A4E and 9B8 was made by gel filtration chromatography. For this analysis, the nucleotide sequence for the OgLuc variants, C1+A4E and 9B8, were cloned into a HQ-Tagged FLEXI® Vector (Promega Corp.) to create a HQHQHQ N-terminally tagged protein that was overexpressed in E. coli KRX cells. The overexpressed proteins were purified using the HISLINK™ Protein Purification System (Promega Corp.) according to manufacturer's instructions. Samples of each individual standard and sample protein were analyzed by gel filtration chromatography, which was performed at 24° C. on an Agilent 1200 HPLC, using a Superdex 200 5/150 GL column (GE Healthcare) with a flow rate of 0.25 mL/min (FIGS. 43A-B). The mobile phase (i.e., running buffer) consisted of 50 mM Tris and 150 mM NaCl, pH 7.5. Protein elution was monitored at 214 and 280 nm. A standard calibration curve was generated using: 1) Ovalbumin, 43 kDa (GE Healthcare), 2) Carbonic Anhydrase, 29 kDa (Sigma) and 3) Myoglobin, 17 kDa (Horse Heart, Sigma). The molecular weights of the purified proteins were calculated directly from the calibration curve.
The relative hydrodynamic volume of the L27V variant was made by gel filtration chromatography. For this analysis, the nucleotide sequence for the L27V variant was cloned into a HaloTag® vector pFN18A (Promega Corp.) to create a HaloTag®-terminally tagged protein that was overexpressed in E. coli KRX cells (Promega Corp.). The overexpressed protein was purified using the HaloTag® Protein Purification System (Promega Corp.) according to manufacturer's instructions. Samples of each individual standard and sample protein were analyzed by gel filtration chromatography performed at 24° C. on an Agilent 1200 HPLC using a Superdex 200 5/150 GL column (GE Healthcare) with a flow rate of 0.25 mL/min (FIG. 56).
On the technique in general: In gel filtration, larger molecules generally elute earlier.
With B1, the binding result is “no binding”.

As for B2, the binding result is “binds”.

On to B3, for which the binding result is “no binding”.
